In patent US20140335107A1 (published 2014):
Residue numbers refer to the chain shown, from its start. Where no end group is shown, it is not given here.

What was measured:
[1] = target: T1, extracellular domain of human CD79b (huCD79becd) (human, UniProt P40259 29-159); experiment: phage selection, Fab on phage
T1 construct: expressed in CHO cells
T1 sequence: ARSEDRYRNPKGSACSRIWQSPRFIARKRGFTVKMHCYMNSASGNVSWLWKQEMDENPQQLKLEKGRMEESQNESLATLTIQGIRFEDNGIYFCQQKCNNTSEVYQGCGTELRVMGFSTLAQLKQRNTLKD
Procedure: For phage selection, the extracellular domain of CD79b (huCD79becd) (2 μg/ml) was immobilized in PBS on MaxiSorp microtiter plates (Nunc) overnight at 4° C. Plates were blocked for at least 1 h using Casein Blocker (Pierce). Phage were harvested from the culture supernatant and suspended in PBS containing 0.5% BSA and 0.05% Tween 20 (PBSBT). Following addition of the phage library and phage selection for 2 h, microtiter wells were washed extensively with PBS containing 0.05% Tween 20 (PBST) to remove unbound phage and bound phage were eluted by incubating the wells with 100 mM HCl for 30 min. Selection stringency may be increased during successive rounds of selection by increasing the number of washes with PBST or by incubating with soluble huCD79becd for increasing time periods prior to elution.

[2] = target: T2, human CD79b (human, UniProt P40259 29-229); experiment: FACS on DoHH-2 cells, Fab (data not shown)
T2 construct: endogenous CD79b on B-cell lines (BJAB, BJAB-luciferase, DoHH-2); also called PRO36249; CD79b expressed on the surface of BJAB-luciferase cells
T2 sequence: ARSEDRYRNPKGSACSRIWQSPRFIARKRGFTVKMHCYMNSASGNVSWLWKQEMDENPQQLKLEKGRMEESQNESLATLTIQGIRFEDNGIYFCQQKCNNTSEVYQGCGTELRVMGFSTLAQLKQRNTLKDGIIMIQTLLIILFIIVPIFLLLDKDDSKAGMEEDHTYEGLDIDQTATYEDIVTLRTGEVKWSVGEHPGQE
Procedure: To further determine binding of the Fab variants of MA79b-grafted “humanized” antibody or antibody variants, binding of Fab and/or IgG variants to DoHH-2 cells were analyzed using FACS analysis. Further, binding of MA79b-grafted “humanized” antibody variants to BJAB-luciferase cells was analyzed using FACS analysis.
For FACS analysis of Fab variants of MA79b-grafted “humanized” antibody variants (MA79b-grafted “humanized” antibody (IgG version used as a control)), DoHH-2 cells (1×10⁶ in 100 μl volume) were first incubated with or without 1 μg of original mouse anti-CD79b monoclonal antibody (MA79b) for 30 minutes, before adding 1 μg of individual Fab variant (or control antibody).

[3] = target: T1, extracellular domain of human CD79b …; experiment: Biacore (SPR), IgG
Procedure: (§1) Binding of Fab and IgG variants of MA79b, the MA79b-grafted “humanized” antibody or MA79b-grafted “humanized” antibody variants to immobilized huCD79becd or huCD79b-Fc or the 16 amino acid peptide containing the epitope for MA79b was measured by surface plasma resonance. Affinity determinations were performed by surface plasmon resonance using a BIAcore™-2000. The antigen, huCD79becd or huCD79b-Fc was immobilized (approximately 50-200 RU) in 10 mM sodium acetate pH 4.8 on a CM5 sensor chip. Due to a large avidity effect, affinity measurements were sensitive to the amount of huCD79becd immobilized. For this reason, affinities, determined for samples run on different days, were normalized to MA79b that was run along side as a standard. In experiments that measured binding to the 16 amino acid peptide containing the epitope for MA79b ([…]) (SEQ ID NO: 16), the biotinylated peptide was captured (approximately 20 RU) on a streptavidin coated sensor chip. Purified MA79b-grafted “humanized” antibody variant (as Fab or IgG) (a 2-fold serial dilution of 0.5 to 1000 nM in PBST) was injected at a flow rate of 30 μL/min. Each sample was analyzed with 4-minute association and 10-minute disassociation. After each injection the chip was regenerated using 10 mM Glycine pH 1.7. […]

[4] = target: T1, extracellular domain of human CD79b …; experiment: FACS analysis, IgG (data not shown)
[5] = target: T3, 16 amino acid peptide containing the epitope for MA79b (ARSEDRYRNPKGSACK) (human, also: biotinylated (site not given here)); experiment: Biacore (SPR), biotinylated peptide captured on streptavidin chip
T3 construct: synthesized; captured on a streptavidin coated sensor chip; also called biotinylated peptide
T3 peptide: ARSEDRYRNPKGSACK
Procedure: as §1

[6] = target: T2, human CD79b; experiment: Scatchard analysis, 125I-labeled IgG competed with unlabeled IgG on BJAB cells stably expressing cynomolgus CD79b and endogenous human CD79b
Procedure: To further determine binding of the IgG variants having changes in HVR-L2 and HVR-H3 (huMA79b L2/H3), binding of iodinated IgG variants to BJAB cells expressing human CD79b and cynomologous CD79b was analyzed and Scatchard analysis was performed.
For Scatchard analysis, 0.5 nM I¹²⁵ labeled MA79b or huMA79b L2/H3 was competed against unlabeled MA79b or huMA79b L2/H3, respectively, ranging from 50 to 0.02 nM (12 step 1:2 serial dilution) in the presence of a transfected BJAB line stably expressing cynomologous-CD79b and endogenous human-CD79b. After a four hour incubation at 4° C., cells were washed and cell pellet counts were read by a gamma counter (1470 WIZARD Automatic Gamma Counter; Perkin Elmer, Walthem, Mass.). All points were done in triplicate and counted for 10 minutes. The average CPM was used for Kd calculation using the New Ligand (Genentech, South San Francisco, Calif.) program.

[7] = target: T1, extracellular domain of human CD79b …; experiment: Biacore (SPR), IgG (FIG. 12)
Procedure: as §1

B1: huMA79b graft variant with HVR-H3 of SEQ ID NO: 94 (huMA79b H3-10), Fab (Fab, name in Kabat numbering, V domains shown)
VH: EVQLVESGGGLVQPGGSLRLSCAASGYTFSSYWIEWVRQAPGKGLEWVGEILPGGGDTNYNEIFKGRFTISADTSKNTAYLQMNSLRAEDTAVYYCTRRVPIRLDYWGQGTLVTVSS
VL: DIQMTQSPSSLSASVGDRVTITCKASQSVDYDGDSFLNWYQQKPGKAPKLLIYAASNLESGVPSRFSGSGSGTDFTLTISSLQPEDFATYYCQQSNEDPLTFGQGTKVEIKR
notes: selected as Fab on phage; also made as soluble Fab for FACS; also called H3-10 mutation
- binding result [1]: binds
- binding result [2]: binds

B2: MA79b-grafted humanized antibody (huMA79b graft), IgG (antibody, V domains shown)
VH: B1 VH with I102V, R103Y, L104F
VL: B1 VL
notes: expressed as an IgG
- fold loss of binding affinity [3]: > 50 fold
- fold reduction of binding affinity [4]: > 100 fold

B3: MA79b-grafted humanized antibody variant L2/H3 (huMA79b L2/H3), IgG (antibody, name in Kabat numbering, V domains shown)
VH: B1 VH
VL: B1 VL with S56R, N57K, E59G, S60R
notes: L2-2 and H3-10 mutations combined on the huMA79b graft; 125I-labeled in the Scatchard assay
- binding result [5]: binds
- Kd [6]: 0.52 nM

B4: MA79b-grafted humanized antibody variant 17 (huMA79b.v17) (antibody, human IgG1, kappa, V domains shown)
VH: B1 VH with V48I, F68A, I70F, I102V, R103Y, L104F
VL: B1 VL with M4L
notes: IgG
- binding result [7]: binds
